Results reported in US20220064691A1 (ABERA BIOSCIENCE, published 2022).

Key:
ssTorA(3×)-MBP-SpT [1] = test: overview table of covalent ligation to inclusion bodies
ssTorA(3×)-MBP-SpT [2] = test: covalent coupling to inclusion bodies in PBS, 25 °C 2 h; SDS-PAGE and Coomassie staining
Method: The mixtures were incubated at 25° C. for 2h. The inclusion bodies were collected through centrifugation and resuspended in PBS.

Row | Binder | binding result (ssTorA(3×)-MBP-SpT [1]) | binding result (ssTorA(3×)-MBP-SpT [2])
1 | GFPnb-SpyCatcher (VHH, also called GFPnb-SpC; GFPNanobody-SpyCatcher) VHH: MVQLVESGGALVQPGGSLRLSCAASGFPVNRYSMRWYRQAPGKEREWVAGMSSAGDRSSYEDSVKGRFTISRDDARNTVYLQMNSLKPEDTAVYYCNVNVGFEYWGQGTQVTVSS | binds | –
2 | GFPnb-SpC EQ (VHH) VHH: MVQLVESGGALVQPGGSLRLSCAASGFPVNRYSMRWYRQAPGKEREWVAGMSSAGDRSSYEDSVKGRFTISRDDARNTVYLQMNSLKPEDTAVYYCNVNVGFEYWGQGTQVTVSS | – | no binding (tested: 3.2 µM)
